The values that follow come from patent US11813311B2, “Treatment and prevention of metabolic diseases” (Singapore Health Services PTE LTD., priority 2019, dated 2023).

Experiment [1] relates to HFMCD-fed mice. Kind of experiment: Early-stage HFMCD NASH, antibody from week 1. The class given is in vivo, mouse. The following applies: for development of fibrosis / lipid droplets in livers: HFMCD, 10 mg/kg biweekly from week 1; for hepatic lipid metabolism (lipogenesis and β-oxidation gene expression): RNA-seq, compared to IgG. The method, then: FIGS. 22A to 22K. Neutralisation of Il-11 signalling reverses liver damage in early stage NASH. (A) Relative liver mRNA expression of fibrosis and inflammation markers from mice fed with NC or HFMCD diets for the indicated time points. (B) Schematic of the anti-IL-11 therapy experiment early on in the HFMCD diet NASH model. Antibody treatments were started 1 week after the start of NASH diet when X209, X203, or IgG (10 mg/kg, biweekly) were administered intraperitoneally for 5 weeks. (C) Representative gross liver images and (D) Masson's Trichrome stained images of livers (scale bars, 100 μm) after 5 weeks of IgG or X209 treatments. (E) Hepatic triglyceride levels (n≥5/group), (F) liver hydroxyproline content of X209- and IgG-treated mice (n≥5/group), (G) serum ALT levels (n≥5/group). (H) Immunofluorescence images of IL6R and IL11RA expression in hepatocytes (scale bars, 100 μm). Dose-dependent effect of (I) IL-11 on ALT in hepatocyte supernatant and (J) stress fibers formation (rhodamine-phalloidin staining) in hepatocyte (scale bars, 200 μm). (K) IL-11 protein is secreted from primary human hepatocytes stimulated with TGFβ1 (5 ng/ml); 24 h. (E) Data are shown as box-and-whisker with median (middle line), 25th-75th percentiles (box) and min-max percentiles (whiskers); (F-G,I,K) data are shown as mean±s.d. (E) Tukey-corrected Student's t-test; (F,G) two-way ANOVA; (I,K) two-tailed Dunnett's test. FC: fold change; NC: normal chow; HFMCD: high fat methionine- and choline-deficient.
(§1) High fat methionine and choline-deficient (HFMCD) diet fed wild-type mice Five week old male C57BL/6N mice were fed with Methionine and Choline deficient diet supplemented with 60 kcal % fat (A060713011316, Research Diets); control mice were fed with normal chow (NC, Specialty Feeds). Durations of diet and antibody therapies are described.
Immune cells were isolated from liver as described previously 20. Liver tissues were minced and digested with 100 μg/ml Collagenase IV and 20 U/ml DNase I, at 37° C. for 1 h. Following digestion, cells were passed through strainer to obtain single cell suspension and subjected to percoll gradient centrifugation for isolation of immune cells. CyTOF staining was performed as previously described 21. Cells were thawed and stained with cisplatin (Fluidigm) to identify live cells, followed by staining with metal-conjugated CD45 antibody, for barcoding purpose. After barcoding, cells were stained with metal-conjugated cell surface antibody (Ly6C). Cells were then fixed with 1.6% PFA, permeabilized with 100% methanol, and subjected to intracellular antibody staining (TGFβ1). Cells were labeled with DNA intercalator before acquisition on Helios mass cytometer (Fluidigm). For analysis, first live single cells were identified, followed by debarcoding to identify individual samples. Manual gating was performed using Flowjo software (Flowjo).

The subject of experiment [2] is HFMCD-fed mice. The experiment is described as follows: HFMCD NASH model, antibody from week 6 to 10. The class given is in vivo, mouse. Conditions: 10 mg/kg biweekly, four weeks of therapy from week 6. The protocol: FIGS. 20A to 20N. Therapeutic targeting of Il-11 inhibits and reverses NASH pathologies in preclinical models. (A) Schematic showing therapeutic use of X203 and X209 (10 mg/kg, biweekly) in HFMCD-fed mice for experiments shown in (B-E). X203, X209 or IgG isotype control were administered from week 6 to 10 of HFMCD diet. (B) Representative liver histological images (Masson's Trichrome staining; scale bars, 100 μm), (C) relative liver hydroxyproline content, (D) relative liver pro-inflammatory mRNA expression levels (n≥6/group) and (E) serum ALT levels. (F) Western blots of hepatic Erk activation status. (G) Schematic of X203 or IgG administration to MCD-fed db/db mice for experiments shown in H-N. Western blots of hepatic (H) Il-11 and Gapdh, (I) p-Erk and Erk. (J) Representative Masson's Trichrome images of liver from X203 or IgG-treated MCD-fed db/db mice (scale bars, 100 μm). The levels of (K) hepatic triglyceride, (L) relative liver hydroxyproline, (M) serum ALT, and (N) mRNA expression of liver pro-inflammatory markers (n≥5/group). (C-E,K-N) Data are shown as box-and-whisker with median (middle line), 25th-75th percentiles (box) and min-max percentiles (whiskers); two-tailed, Tukey-corrected Student's t-test. FC: fold change; NC: normal chow; HFMCD: high fat methionine- and choline-deficient; MCD: methionine- and choline-deficient.
as §1
Mice were injected intraperitoneally with either antagonist anti-IL-11 antibody, antagonist anti-IL11RA antibody or an identical amount of IgG isotype control for the treatment durations outlined in the figures.

B1: X209: mouse anti-mouse IL-11Rα IgG (IgG1κ), neutralising; VH SEQ ID NO:24, VL SEQ ID NO:25 (antibody, V domains shown)
VH: QVQLQQPGAELVRPGSSVKLSCKASGYTFTNYWMHWLKQRPVQGLEWIGNIGPSDSKTHYNQKFKDKATLTVDKSSSTAYMQLNSLTSEDSAVYYCARGDYVLFTYWGQGTLVTVSA
VL: DIVLTQSPATLSLSPGERATLSCRASQSISNNLHWYQQKSHEAPRLLIKYASQSISGIPARFSGSGSGTDFTLSFSSLETEDFAVYFCQQSYSWPLTFGQGTKLEIK
modifications: Enx209 VH; Enx209 VL
B1: the “circulating TGFβ1 levels” value in experiment [1] (HFMCD diet) is “reduced”. For the same molecule, in experiment [1], the development of fibrosis entry is listed as “nor did these mice develop fibrosis”; the “lipid droplets in livers” value was “not seen”; the “hepatic lipid metabolism (lipogenesis and β-oxidation gene expression)” value is listed as “more so than X203, improved hepatic lipid metabolism”. Further, in experiment [1] (during steatohepatitis, CyTOF), the “Ly6C+veTGFβ1+ve cells” value was “specific reduction” and the “immune cells in liver” value is given as “fewer immune cells”. Also, in experiment [2], the “Erk activation (liver)” value is listed as “abolished”, the liver damage entry is “inhibited or reversed”, the liver fibrosis entry is given as “inhibited or reversed” and the liver inflammation entry is given as “inhibited or reversed”. Moreover, the steatosis result in experiment [2] is listed as “unchanged”.

B2: X203: mouse anti-mouse IL-11 IgG (IgG1κ), neutralising; VH SEQ ID NO:22, VL SEQ ID NO:23 (antibody, V domains shown)
VH: EVQLQQSGPELVKPGASVKIPCKASGYTFTDYNMDWVKQSHGKSLEWIGDINPHNGGPIYNQKFTGKATLTVDKSSSTAYMELRSLTSEDTAVYYCARGELGHWYFDVWGTGTTVTVSS
VL: DIVLTQSPASLAVSLGQRATISCRASKSVSTSGYSYIHWYQQKPGQPPKLLIYLASNLDSGVPARFSGSGSGTDFTLNIHPVEEEDAATYYCQHSRDLPPTFGGGTKLEIK
modifications: Enx203 VH; Enx203 VL
Turning to B2, in experiment [1], the development of fibrosis result is listed as “nor did these mice develop fibrosis”; the “lipid droplets in livers” value was “not seen”; the “hepatic lipid metabolism (lipogenesis and β-oxidation gene expression)” value is reported as “improved hepatic lipid metabolism”. Also, in experiment [2], the “Erk activation (liver)” value is given as “abolished”, the liver damage entry was “inhibited or reversed”, the liver fibrosis entry is listed as “inhibited or reversed” and the liver inflammation entry was “inhibited or reversed”. In experiment [2], the steatosis entry is recorded as “unchanged”.
